{"source": "patent US20210371506A1", "key": {"Aβ1-42 monomer (human)": {"biological_target": "Aβ1-42 monomer (human)", "sequence (peptide, as listed by the source)": "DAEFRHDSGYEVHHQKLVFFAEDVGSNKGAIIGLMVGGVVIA", "assay": "SPR, Biacore T200; IgG captured on Protein A chip, Aβ1-42 monomer flowed over"}, "Aβ1-42 fibrils (human)": {"biological_target": "Aβ1-42 fibrils (human)", "sequence (peptide, as listed by the source)": "as above", "assay": "SPR, Biacore T200; Aβ1-42 fibrils amine-coupled to CM5 chip, antibody flowed over"}}, "data": [{"substance": "Aducanumab (antibody)", "values": [{"measurement": "Kd", "setting": "Aβ1-42 monomer (human)", "result": 3.2, "unit": "µM"}, {"measurement": "Kd", "setting": "Aβ1-42 fibrils (human)", "result": 0.0752, "unit": "µM"}]}]}
